Assay results from patent EP4814013A1 (Nanjing Regenecore Biotech Co., Ltd., dated 2026).
Substitutions are numbered along the chain they refer to.

What was measured:
[1] = target: T1, human recombinant FOLR1 extracellular domain protein, amino acids 25-233 (human, UniProt P15328 25-233); assay: phage display panning and clone ELISA as in Examples 1-4
T1 construct: range 25-233; Made in-house in 293F cells

[2] = target: T2, human recombinant CD16a extracellular domain protein, amino acids 17-208 with F at position 176 (CD16a-F176) (human, UniProt P08637 17-208); assay: ELISA of crude VHH extracts of panned phage-library clones on coated antigen, anti-HA-HRP; positive = OD more than 5 times the control
T2 construct: range 17-208; Made in-house in 293F cells; also called human CD16a (F176)
T2 sequence (P08637 17-208 limits assumed): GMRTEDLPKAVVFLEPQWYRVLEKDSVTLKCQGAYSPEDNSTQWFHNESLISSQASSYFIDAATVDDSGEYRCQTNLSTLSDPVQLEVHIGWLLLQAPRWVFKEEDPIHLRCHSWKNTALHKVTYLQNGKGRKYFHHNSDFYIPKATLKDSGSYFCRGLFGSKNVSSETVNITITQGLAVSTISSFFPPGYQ

[3] = target: T3, human recombinant Nkp46 extracellular domain protein, amino acids 22-254 (human, UniProt O76036 22-254); assay: phage display panning and clone ELISA as in Examples 1-4
T3 construct: range 22-254; Made in-house in 293F cells
T3 sequence (O76036 22-254 limits assumed): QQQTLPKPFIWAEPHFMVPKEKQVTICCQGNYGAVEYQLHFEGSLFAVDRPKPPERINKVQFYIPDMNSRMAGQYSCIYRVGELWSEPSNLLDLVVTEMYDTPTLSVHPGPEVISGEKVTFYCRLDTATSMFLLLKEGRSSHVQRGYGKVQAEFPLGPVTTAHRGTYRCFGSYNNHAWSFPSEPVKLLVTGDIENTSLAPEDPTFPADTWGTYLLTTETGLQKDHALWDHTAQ

[4] = target: T4, human recombinant CD16a extracellular domain protein, amino acids 17-208 with V at position 176 (CD16a-V176) (human, UniProt P08637 17-208); assay: ELISA of crude VHH extracts of panned phage-library clones on coated antigen, anti-HA-HRP; positive = OD more than 5 times the control
T4 construct: range 17-208; Made in-house in 293F cells; also called human CD16a (V176)
T4 sequence (P08637 17-208 F176V limits assumed): as the sequence (P08637 17-208 limits assumed) above, with F160V counted along it

T1 sequence (P15328 25-233 limits assumed): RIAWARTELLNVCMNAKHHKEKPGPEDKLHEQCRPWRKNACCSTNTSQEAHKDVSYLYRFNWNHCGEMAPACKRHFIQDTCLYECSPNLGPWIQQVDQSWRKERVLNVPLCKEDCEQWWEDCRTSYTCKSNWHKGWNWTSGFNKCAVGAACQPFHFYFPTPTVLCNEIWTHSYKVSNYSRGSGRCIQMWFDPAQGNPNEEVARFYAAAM

B1: FOLR1-4F4 single-domain antibody (VHH)
VHH: QVQLVESGGGSVQAGGSLRLSCAASDGTYRRYCMGWFRQAPGKEREKVAAIYTGDGTTYYADSVKGRFTISQENAKNTMYLQMNSLKPEDTAMYYCAADRSGCSVAWSYSSFEDWGQGTQVTVSS
notes: Parental (not humanized) clone as screened
**Q.** Does B1 bind [1]?
**A.** binds

B2: anti-CD16a single-domain antibody clone 4B5 (VHH, crude extract from pMECS) (VHH)
VHH: QVQLVESGGGLVQAGGSLRLSCAASGGTFRIYAMGWFRQAPGKEREFVGSISMMRGITDYAESVKGRFTISRDNAKFTMYLQMNSLKSEDTAVYYCAKAVDKSPYGGWGWGPYDDWGQGTQVTVSS
notes: Crude antibody extract of an E. coli TG1 clone; not shown: C-terminal tag(s) from the pMECS vector (HA tag detected with anti-HA-HRP, tag for nickel-column purification)
**Q.** Does B2 bind [2]?
**A.** binds

B3: Nkp46-7F10 single-domain antibody (VHH)
VHH: QVQLVESGGGLVQAGGSLRLSCAASGRTFSSYAMGWFRQAPGKEREFVAGISWSGDSTYYADSVKGRFTISRDNAKNTVGLQMNSLKPEDTAVYYCAAASGQVQTVVVVTDRWYHYWGQGTQVTVSS
notes: as for B1
**Q.** Does B3 bind [3]?
**A.** binds

B4: anti-CD16a single-domain antibody clone 13G6 (VHH, crude extract from pMECS) (VHH)
VHH: QVQLVESGGGLVQPGGSLRLSCAASGRTFRIYAMGWFRQAPGKEREFVGSIRLMRGITDYADSVKGRFTISRDNAKFTMYLQMNTLKPEDTAVYYCAAVGSGGDFYTPSTSGEYRYWGQGTQVTVSS
notes: as for B2
**Q.** Does B4 bind [4]?
**A.** binds

B5: anti-CD16a single-domain antibody clone 14A3 (VHH, crude extract from pMECS) (VHH)
VHH: QVQLVESGGGLVQPGGSLRLSCEVSGRTFSYLALGWFRQAPGKEREFVAAASWGGGSTGYADSVKGRFAISRDNVKNTQYLQMNSLKPEDTAVYYCVVGRRFKGSVYYTPNEYEYWGQGTQVTVSS
notes: as for B2
**Q.** Does B5 bind [4]?
**A.** binds

B6: anti-CD16a single-domain antibody clone 23D1 (VHH, crude extract from pMECS) (VHH)
VHH: B5 VHH with P14A, E23A, L34M, A51S, S57T, T58S, V75A
notes: as for B2
**Q.** Does B6 bind [4]?
**A.** binds

B7: anti-CD16a single-domain antibody clone 15E2 (VHH, crude extract from pMECS) (VHH)
VHH: QVQLVESGGGLVQAGDSLRLSCAASGGTFRIYAMGWFRQAPGKEREFVGSISMMRGITDYAESVKGRFTISRDNAKFTMYLQMNTLKPEDTAVYYCAIRERPPPMGWGLAGISYDYWGQGTQVTVSS
notes: as for B2
**Q.** Does B7 bind [2]?
**A.** binds
